System: Escherichia coli TOP10
Assay: shrunken log2 fold change of peptide-encoding DNA abundance (4.5 h post-induction vs induction); higher = less antimicrobial activity (less host growth inhibition)
Details: time post-induction: 4.5 h; library: site-saturation at positions 5, 18, 19, 20
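Also: peptides expressed intracellularly from a pBAD plasmid library in pooled LB shake-flask culture, induced with 0.3% L-arabinose, DNA abundance read by NGS, three biological replicates, DESeq2 with apeglm shrinkage.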

RRIRGRPPRLPRPRPRPCNEPRP
shrunken log2 fold change: 0.0278

RRIRGRPPRLPRPRPRPCNMPRP
shrunken log2 fold change: -0.0796

RRIRGRPPRLPRPRPRPCPRPRP
shrunken log2 fold change: 0.23

RRIRGRPPRLPRPRPRPCRLPRP
shrunken log2 fold change: 0.123

RRIRGRPPRLPRPRPRPCSQPRP
shrunken log2 fold change: 0.19

RRIRGRPPRLPRPRPRPCSVPRP
shrunken log2 fold change: 0.394

RRIRGRPPRLPRPRPRPCTAPRP
shrunken log2 fold change: 0.875

RRIRGRPPRLPRPRPRPCTCPRP
shrunken log2 fold change: 0.111

RRIRGRPPRLPRPRPRPCVWPRP
shrunken log2 fold change: 0.921

RRIRGRPPRLPRPRPRPCYAPRP
shrunken log2 fold change: 0.128

RRIRGRPPRLPRPRPRPCYMPRP
shrunken log2 fold change: -0.328

RRIRGRPPRLPRPRPRPDCEPRP
shrunken log2 fold change: 1.44

RRIRGRPPRLPRPRPRPDDFPRP
shrunken log2 fold change: 0.0116

RRIRGRPPRLPRPRPRPDGEPRP
shrunken log2 fold change: 0.259

RRIRGRPPRLPRPRPRPDHGPRP
shrunken log2 fold change: -0.0602

RRIRGRPPRLPRPRPRPDHPPRP
shrunken log2 fold change: -0.0241

RRIRGRPPRLPRPRPRPDICPRP
shrunken log2 fold change: 0.2

RRIRGRPPRLPRPRPRPDILPRP
shrunken log2 fold change: 0.785

RRIRGRPPRLPRPRPRPDKKPRP
shrunken log2 fold change: 0.878

RRIRGRPPRLPRPRPRPDKLPRP
shrunken log2 fold change: -0.0186

RRIRGRPPRLPRPRPRPDLDPRP
shrunken log2 fold change: 1.21

RRIRGRPPRLPRPRPRPDNNPRP
shrunken log2 fold change: 0.388

RRIRGRPPRLPRPRPRPDNQPRP
shrunken log2 fold change: 0.168

RRIRGRPPRLPRPRPRPDQQPRP
shrunken log2 fold change: 0.074

RRIRGRPPRLPRPRPRPDSYPRP
shrunken log2 fold change: 0.0941

RRIRGRPPRLPRPRPRPDTGPRP
shrunken log2 fold change: -0.0756

RRIRGRPPRLPRPRPRPDTIPRP
shrunken log2 fold change: 0.0799

RRIRGRPPRLPRPRPRPDTPPRP
shrunken log2 fold change: 0.799

RRIRGRPPRLPRPRPRPDTSPRP
shrunken log2 fold change: 0.383

RRIRGRPPRLPRPRPRPDVAPRP
shrunken log2 fold change: 1.98

RRIRGRPPRLPRPRPRPDVYPRP
shrunken log2 fold change: -0.0497

RRIRGRPPRLPRPRPRPDYTPRP
shrunken log2 fold change: 0.343

RRIRGRPPRLPRPRPRPDYVPRP
shrunken log2 fold change: 0.66

RRIRGRPPRLPRPRPRPECEPRP
shrunken log2 fold change: 1.88

RRIRGRPPRLPRPRPRPEDEPRP
shrunken log2 fold change: 0.0631

RRIRGRPPRLPRPRPRPEDLPRP
shrunken log2 fold change: 0.582

RRIRGRPPRLPRPRPRPEEIPRP
shrunken log2 fold change: 0.842

RRIRGRPPRLPRPRPRPEGNPRP
shrunken log2 fold change: 0.0816

RRIRGRPPRLPRPRPRPEGQPRP
shrunken log2 fold change: 1.13

RRIRGRPPRLPRPRPRPENAPRP
shrunken log2 fold change: 1.03

RRIRGRPPRLPRPRPRPENCPRP
shrunken log2 fold change: 0.111

RRIRGRPPRLPRPRPRPENEPRP
shrunken log2 fold change: 0.686

RRIRGRPPRLPRPRPRPENWPRP
shrunken log2 fold change: 0.594

RRIRGRPPRLPRPRPRPEPNPRP
shrunken log2 fold change: 1.42

RRIRGRPPRLPRPRPRPEQHPRP
shrunken log2 fold change: 0.66

RRIRGRPPRLPRPRPRPEQVPRP
shrunken log2 fold change: 0.995

RRIRGRPPRLPRPRPRPERCPRP
shrunken log2 fold change: 0.203

RRIRGRPPRLPRPRPRPERSPRP
shrunken log2 fold change: 1.36

RRIRGRPPRLPRPRPRPETIPRP
shrunken log2 fold change: 0.224

RRIRGRPPRLPRPRPRPETLPRP
shrunken log2 fold change: 1.37

RRIRGRPPRLPRPRPRPETSPRP
shrunken log2 fold change: 1.68

RRIRGRPPRLPRPRPRPEVYPRP
shrunken log2 fold change: 0.346

RRIRGRPPRLPRPRPRPEWCPRP
shrunken log2 fold change: 1.19

RRIRGRPPRLPRPRPRPEWVPRP
shrunken log2 fold change: 0.875

RRIRGRPPRLPRPRPRPEWWPRP
shrunken log2 fold change: 0.77

RRIRGRPPRLPRPRPRPEYKPRP
shrunken log2 fold change: 0.375

RRIRGRPPRLPRPRPRPEYRPRP
shrunken log2 fold change: 0.354

RRIRGRPPRLPRPRPRPFAIPRP
shrunken log2 fold change: -0.0466

RRIRGRPPRLPRPRPRPFCIPRP
shrunken log2 fold change: 0.494

RRIRGRPPRLPRPRPRPFCPPRP
shrunken log2 fold change: -0.0253

RRIRGRPPRLPRPRPRPFEKPRP
shrunken log2 fold change: 0.22

RRIRGRPPRLPRPRPRPFGAPRP
shrunken log2 fold change: 0.793

RRIRGRPPRLPRPRPRPFGGPRP
shrunken log2 fold change: 0.401

RRIRGRPPRLPRPRPRPFGSPRP
shrunken log2 fold change: 0.081

RRIRGRPPRLPRPRPRPFHMPRP
shrunken log2 fold change: -0.0599

RRIRGRPPRLPRPRPRPFKDPRP
shrunken log2 fold change: -0.681

RRIRGRPPRLPRPRPRPFMCPRP
shrunken log2 fold change: 0.224

RRIRGRPPRLPRPRPRPFMIPRP
shrunken log2 fold change: -0.0383

RRIRGRPPRLPRPRPRPFMQPRP
shrunken log2 fold change: 0.165

RRIRGRPPRLPRPRPRPFNDPRP
shrunken log2 fold change: -0.753

RRIRGRPPRLPRPRPRPFPGPRP
shrunken log2 fold change: 0.0889

RRIRGRPPRLPRPRPRPFQIPRP
shrunken log2 fold change: -0.0147

RRIRGRPPRLPRPRPRPFQMPRP
shrunken log2 fold change: 0.0308

RRIRGRPPRLPRPRPRPFSMPRP
shrunken log2 fold change: 0.169

RRIRGRPPRLPRPRPRPFTTPRP
shrunken log2 fold change: 0.0423

RRIRGRPPRLPRPRPRPFVDPRP
shrunken log2 fold change: 0.571

RRIRGRPPRLPRPRPRPFVKPRP
shrunken log2 fold change: -0.419

RRIRGRPPRLPRPRPRPFYFPRP
shrunken log2 fold change: 0.219

RRIRGRPPRLPRPRPRPGAIPRP
shrunken log2 fold change: 1.44

RRIRGRPPRLPRPRPRPGFFPRP
shrunken log2 fold change: 0.542

RRIRGRPPRLPRPRPRPGGLPRP
shrunken log2 fold change: 0.842

RRIRGRPPRLPRPRPRPGHSPRP
shrunken log2 fold change: -0.0314

RRIRGRPPRLPRPRPRPGKCPRP
shrunken log2 fold change: -0.0229

RRIRGRPPRLPRPRPRPGLMPRP
shrunken log2 fold change: 0.799

RRIRGRPPRLPRPRPRPGMMPRP
shrunken log2 fold change: -0.0297

RRIRGRPPRLPRPRPRPGMVPRP
shrunken log2 fold change: 1.46

RRIRGRPPRLPRPRPRPGNEPRP
shrunken log2 fold change: 0.0696

RRIRGRPPRLPRPRPRPGQDPRP
shrunken log2 fold change: 0.605

RRIRGRPPRLPRPRPRPGQNPRP
shrunken log2 fold change: 0.0139

RRIRGRPPRLPRPRPRPGREPRP
shrunken log2 fold change: 0.217

RRIRGRPPRLPRPRPRPGRYPRP
shrunken log2 fold change: -0.378

RRIRGRPPRLPRPRPRPGSNPRP
shrunken log2 fold change: 0.0237

RRIRGRPPRLPRPRPRPGTIPRP
shrunken log2 fold change: 0.00615

RRIRGRPPRLPRPRPRPGTNPRP
shrunken log2 fold change: 0.133

RRIRGRPPRLPRPRPRPGTRPRP
shrunken log2 fold change: 0.703

RRIRGRPPRLPRPRPRPGVWPRP
shrunken log2 fold change: 1.22

RRIRGRPPRLPRPRPRPGWHPRP
shrunken log2 fold change: 0.277

RRIRGRPPRLPRPRPRPGYFPRP
shrunken log2 fold change: 3.3

RRIRGRPPRLPRPRPRPGYNPRP
shrunken log2 fold change: 0.0217

RRIRGRPPRLPRPRPRPHCIPRP
shrunken log2 fold change: -0.0261

RRIRGRPPRLPRPRPRPHEEPRP
shrunken log2 fold change: 0.383

RRIRGRPPRLPRPRPRPHGCPRP
shrunken log2 fold change: 0.585

RRIRGRPPRLPRPRPRPHGDPRP
shrunken log2 fold change: 1.11

RRIRGRPPRLPRPRPRPHIYPRP
shrunken log2 fold change: 0.0231

RRIRGRPPRLPRPRPRPHKMPRP
shrunken log2 fold change: 0.0936

RRIRGRPPRLPRPRPRPHLQPRP
shrunken log2 fold change: 0.479

RRIRGRPPRLPRPRPRPHMAPRP
shrunken log2 fold change: 0.271

RRIRGRPPRLPRPRPRPHMLPRP
shrunken log2 fold change: 0.142

RRIRGRPPRLPRPRPRPHNRPRP
shrunken log2 fold change: 0.0391

RRIRGRPPRLPRPRPRPHRLPRP
shrunken log2 fold change: 0.14

RRIRGRPPRLPRPRPRPHTKPRP
shrunken log2 fold change: 0.104

RRIRGRPPRLPRPRPRPHTLPRP
shrunken log2 fold change: -0.22

RRIRGRPPRLPRPRPRPHTPPRP
shrunken log2 fold change: 0.339

RRIRGRPPRLPRPRPRPHVAPRP
shrunken log2 fold change: 0.724

RRIRGRPPRLPRPRPRPHVQPRP
shrunken log2 fold change: 0.262

RRIRGRPPRLPRPRPRPHVWPRP
shrunken log2 fold change: 0.201

RRIRGRPPRLPRPRPRPHYWPRP
shrunken log2 fold change: 0.12

RRIRGRPPRLPRPRPRPIAQPRP
shrunken log2 fold change: 0.838

RRIRGRPPRLPRPRPRPIFNPRP
shrunken log2 fold change: 0.051

RRIRGRPPRLPRPRPRPIGGPRP
shrunken log2 fold change: 0.0174

RRIRGRPPRLPRPRPRPIGHPRP
shrunken log2 fold change: 0.39

RRIRGRPPRLPRPRPRPIKTPRP
shrunken log2 fold change: 0.143

RRIRGRPPRLPRPRPRPILGPRP
shrunken log2 fold change: -0.0749

RRIRGRPPRLPRPRPRPILPPRP
shrunken log2 fold change: 0.0676

RRIRGRPPRLPRPRPRPINTPRP
shrunken log2 fold change: -0.4

RRIRGRPPRLPRPRPRPIPAPRP
shrunken log2 fold change: 0.913

RRIRGRPPRLPRPRPRPIPDPRP
shrunken log2 fold change: 0.238

RRIRGRPPRLPRPRPRPIQNPRP
shrunken log2 fold change: 0.0261

RRIRGRPPRLPRPRPRPISSPRP
shrunken log2 fold change: 0.393

RRIRGRPPRLPRPRPRPIWMPRP
shrunken log2 fold change: 0.245

RRIRGRPPRLPRPRPRPIWPPRP
shrunken log2 fold change: 0.23

RRIRGRPPRLPRPRPRPIYWPRP
shrunken log2 fold change: 0.247

RRIRGRPPRLPRPRPRPKAKPRP
shrunken log2 fold change: 0.017

RRIRGRPPRLPRPRPRPKDCPRP
shrunken log2 fold change: 0.427

RRIRGRPPRLPRPRPRPKDYPRP
shrunken log2 fold change: -0.00224

RRIRGRPPRLPRPRPRPKEIPRP
shrunken log2 fold change: 0.57

RRIRGRPPRLPRPRPRPKESPRP
shrunken log2 fold change: 0.981

RRIRGRPPRLPRPRPRPKHQPRP
shrunken log2 fold change: 0.441

RRIRGRPPRLPRPRPRPKHVPRP
shrunken log2 fold change: 0.0824

RRIRGRPPRLPRPRPRPKHYPRP
shrunken log2 fold change: 0.0538

RRIRGRPPRLPRPRPRPKKDPRP
shrunken log2 fold change: 0.708

RRIRGRPPRLPRPRPRPKLFPRP
shrunken log2 fold change: 0.75

RRIRGRPPRLPRPRPRPKLLPRP
shrunken log2 fold change: 0.84

RRIRGRPPRLPRPRPRPKNMPRP
shrunken log2 fold change: 0.176

RRIRGRPPRLPRPRPRPKPWPRP
shrunken log2 fold change: 0.914

RRIRGRPPRLPRPRPRPKQNPRP
shrunken log2 fold change: 0.853

RRIRGRPPRLPRPRPRPKQPPRP
shrunken log2 fold change: 1.08

RRIRGRPPRLPRPRPRPKRYPRP
shrunken log2 fold change: 0.253

RRIRGRPPRLPRPRPRPKSGPRP
shrunken log2 fold change: 0.707

RRIRGRPPRLPRPRPRPKSRPRP
shrunken log2 fold change: 0.0451
